Experimental data from patent US20200199241A1 (Chugai, published 2020).

Experiments:
Test in all cases: SPR (Biacore);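 also: antibody variants captured on sensor chip, Fcγ receptor flowed over at 25 °C, bound receptor normalized to amount of captured antibody, expressed relative to reference antibody set as 100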
[1] = target: T1, human FcγRIIIa(F) (human, UniProt P08637 17-208, limits assumed)
T1 construct: also called FcgRIIIaF; allotype F158

[2] = target: T2, human FcγRIa (human, UniProt P12314 16-292, limits assumed)
T2 construct: also called FcgRIa; FcγRI (CD64)

[3] = target: T3, human FcγRIIb (human, UniProt P31994 43-217, limits assumed)
T3 construct: also called FcgRIIb
T3 sequence: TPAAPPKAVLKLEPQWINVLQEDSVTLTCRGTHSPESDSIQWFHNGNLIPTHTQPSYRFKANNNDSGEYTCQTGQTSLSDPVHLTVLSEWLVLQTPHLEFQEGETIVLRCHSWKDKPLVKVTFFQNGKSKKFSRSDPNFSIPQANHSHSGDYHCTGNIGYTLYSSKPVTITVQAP

[4] = target: T4, human FcγRIIa(H) (human, UniProt P12318 36-217)
T4 construct: also called FcgRIIaH; FcγRIIa type H
T4 sequence: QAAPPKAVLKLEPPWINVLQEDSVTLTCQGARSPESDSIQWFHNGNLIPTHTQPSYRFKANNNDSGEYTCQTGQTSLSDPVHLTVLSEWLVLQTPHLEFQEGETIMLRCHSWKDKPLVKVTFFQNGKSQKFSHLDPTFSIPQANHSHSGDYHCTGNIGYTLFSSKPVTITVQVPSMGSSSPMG

[5] = target: T5, human FcγRIIa(R) (human, UniProt P12318 36-217)
T5 construct: also called FcgRIIaR; FcγRIIa type R
T5 chain: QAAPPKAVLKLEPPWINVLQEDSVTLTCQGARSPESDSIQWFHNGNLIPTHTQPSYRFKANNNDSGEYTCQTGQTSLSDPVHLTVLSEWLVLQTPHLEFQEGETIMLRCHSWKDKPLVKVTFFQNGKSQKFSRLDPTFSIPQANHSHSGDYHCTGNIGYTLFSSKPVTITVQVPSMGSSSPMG

T2 sequence (P12314 16-292 limits assumed): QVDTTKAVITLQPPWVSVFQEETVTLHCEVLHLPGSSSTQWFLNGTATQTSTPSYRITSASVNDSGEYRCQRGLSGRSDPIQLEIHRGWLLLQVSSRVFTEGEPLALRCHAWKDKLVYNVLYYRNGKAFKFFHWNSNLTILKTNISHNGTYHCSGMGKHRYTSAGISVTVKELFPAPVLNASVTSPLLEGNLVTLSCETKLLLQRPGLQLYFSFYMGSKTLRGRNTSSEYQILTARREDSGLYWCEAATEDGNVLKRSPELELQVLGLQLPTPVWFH
T1 sequence (P08637 other isoform, or with tags, fused parts or gaps limits assumed): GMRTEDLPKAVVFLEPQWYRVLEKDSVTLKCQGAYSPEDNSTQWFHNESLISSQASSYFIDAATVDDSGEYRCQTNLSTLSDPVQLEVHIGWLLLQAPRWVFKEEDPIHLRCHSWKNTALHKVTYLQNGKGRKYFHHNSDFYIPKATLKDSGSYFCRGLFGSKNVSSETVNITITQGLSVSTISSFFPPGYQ

| Binder | relative binding activity [1] | relative binding activity [2] | relative binding activity [3] | relative binding activity [4] | relative binding activity [5] |
| --- | --- | --- | --- | --- | --- |
| GpH7-B3 variant G237P/GpL16-k0 (antibody, human IgG1, copies: 2 + 2) heavy: not shown light: DIVMTQSPLSLPVTPGEPASISCQASESLVHSNRNTYLHWYLQKPGQSPQLLIYKVSNRFSGVPDRFSGSGSGTDFTLKISRVEAEDVGVYYCSQNTHVPPTFGQGTKVEIE | 0 % of GpH7-B3/GpL16-k0 | 3 % of GpH7-B3/GpL16-k0 | 5 % of GpH7-B3/GpL16-k0 | 0 % of GpH7-B3/GpL16-k0 |  |
| GpH7-B3 variant S239R/GpL16-k0 (antibody, human IgG1, copies: 2 + 2) heavy: not shown light: DIVMTQSPLSLPVTPGEPASISCQASESLVHSNRNTYLHWYLQKPGQSPQLLIYKVSNRFSGVPDRFSGSGSGTDFTLKISRVEAEDVGVYYCSQNTHVPPTFGQGTKVEIE | 1 % of GpH7-B3/GpL16-k0 | 52 % of GpH7-B3/GpL16-k0 | 5 % of GpH7-B3/GpL16-k0 | 13 % of GpH7-B3/GpL16-k0 |  |
| GpH7-B3 variant D265H/GpL16-k0 (antibody, human IgG1, copies: 2 + 2) heavy: not shown light: DIVMTQSPLSLPVTPGEPASISCQASESLVHSNRNTYLHWYLQKPGQSPQLLIYKVSNRFSGVPDRFSGSGSGTDFTLKISRVEAEDVGVYYCSQNTHVPPTFGQGTKVEIE | 0 % of GpH7-B3/GpL16-k0 | 59 % of GpH7-B3/GpL16-k0 | 11 % of GpH7-B3/GpL16-k0 | 18 % of GpH7-B3/GpL16-k0 | 26 % of GpH7-B3/GpL16-k0 |
| GpH7-B3 variant D265G/GpL16-k0 (antibody, human IgG1, copies: 2 + 2) heavy: not shown light: DIVMTQSPLSLPVTPGEPASISCQASESLVHSNRNTYLHWYLQKPGQSPQLLIYKVSNRFSGVPDRFSGSGSGTDFTLKISRVEAEDVGVYYCSQNTHVPPTFGQGTKVEIE | -1 % of GpH7-B3/GpL16-k0 | 11 % of GpH7-B3/GpL16-k0 | -1 % of GpH7-B3/GpL16-k0 | 1 % of GpH7-B3/GpL16-k0 | 1 % of GpH7-B3/GpL16-k0 |
| GpH7-B3 variant E269W/GpL16-k0 (antibody, human IgG1, copies: 2 + 2) heavy: not shown light: DIVMTQSPLSLPVTPGEPASISCQASESLVHSNRNTYLHWYLQKPGQSPQLLIYKVSNRFSGVPDRFSGSGSGTDFTLKISRVEAEDVGVYYCSQNTHVPPTFGQGTKVEIE |  | 96 % of GpH7-B3/GpL16-k0 | 13 % of GpH7-B3/GpL16-k0 | 30 % of GpH7-B3/GpL16-k0 | 21 % of GpH7-B3/GpL16-k0 |
| GpH7-B3 variant D265I/GpL16-k0 (antibody, human IgG1, copies: 2 + 2) heavy: not shown light: DIVMTQSPLSLPVTPGEPASISCQASESLVHSNRNTYLHWYLQKPGQSPQLLIYKVSNRFSGVPDRFSGSGSGTDFTLKISRVEAEDVGVYYCSQNTHVPPTFGQGTKVEIE | -1 % of GpH7-B3/GpL16-k0 | 2 % of GpH7-B3/GpL16-k0 | -2 % of GpH7-B3/GpL16-k0 | 0 % of GpH7-B3/GpL16-k0 | -1 % of GpH7-B3/GpL16-k0 |
| GpH7-B3 variant E269H/GpL16-k0 (antibody, human IgG1, copies: 2 + 2) heavy: not shown light: DIVMTQSPLSLPVTPGEPASISCQASESLVHSNRNTYLHWYLQKPGQSPQLLIYKVSNRFSGVPDRFSGSGSGTDFTLKISRVEAEDVGVYYCSQNTHVPPTFGQGTKVEIE | 12 % of GpH7-B3/GpL16-k0 | 95 % of GpH7-B3/GpL16-k0 |  | 24 % of GpH7-B3/GpL16-k0 | 12 % of GpH7-B3/GpL16-k0 |
| GpH7-B3 variant G236K/GpL16-k0 (antibody, human IgG1, copies: 2 + 2) heavy: not shown light: DIVMTQSPLSLPVTPGEPASISCQASESLVHSNRNTYLHWYLQKPGQSPQLLIYKVSNRFSGVPDRFSGSGSGTDFTLKISRVEAEDVGVYYCSQNTHVPPTFGQGTKVEIE | 1 % of GpH7-B3/GpL16-k0 | 13 % of GpH7-B3/GpL16-k0 | 19 % of GpH7-B3/GpL16-k0 | 18 % of GpH7-B3/GpL16-k0 |  |
| GpH7-B3 variant P238E/GpL16-k0 (antibody, human IgG1, copies: 2 + 2) heavy: not shown light: DIVMTQSPLSLPVTPGEPASISCQASESLVHSNRNTYLHWYLQKPGQSPQLLIYKVSNRFSGVPDRFSGSGSGTDFTLKISRVEAEDVGVYYCSQNTHVPPTFGQGTKVEIE | 1 % of GpH7-B3/GpL16-k0 | 95 % of GpH7-B3/GpL16-k0 |  | 2 % of GpH7-B3/GpL16-k0 | 21 % of GpH7-B3/GpL16-k0 |
| GpH7-B3 variant L234G/GpL16-k0 (antibody, human IgG1, copies: 2 + 2) heavy: not shown light: DIVMTQSPLSLPVTPGEPASISCQASESLVHSNRNTYLHWYLQKPGQSPQLLIYKVSNRFSGVPDRFSGSGSGTDFTLKISRVEAEDVGVYYCSQNTHVPPTFGQGTKVEIE | 11 % of GpH7-B3/GpL16-k0 | 28 % of GpH7-B3/GpL16-k0 | 10 % of GpH7-B3/GpL16-k0 | 11 % of GpH7-B3/GpL16-k0 |  |
